Marks after values point to notes of the source that are not given here.
B1: PLGF: murine Placental Growth Factor (R&D) (protein, UniProt P49764 19-158, looked up)
Placenta growth factor: VHSQGALSAGNNSTEVEVVPFNEVWGRSYCRPMEKLVYILDEYPDEVSHIFSPSCVLLSRCSGCCGDEGLHCVPIKTANITMQILKIPPNRDPHFYVEMTFSQDVLCECRPILETTKAERRKTKGKRKRSRNSQTEEPHP

Key:
[1] = tested on: PLGF^+/+ endothelial cells; test: Endothelial proliferation, PLGF+/+ cells; type: cell-based, mouse
Text: (§1) Proliferation and survival of endothelial cells in response to VEGF were studied. […] PIGF was also found to modulate the mitogenic response to VEGF of smooth muscle cells, known to express VEGFR-1 and VEGFR-2 (C. L. Grosskreutz et al., 1999, Microvasc. Res. 58, 128-136). […] Thus, PIGF affected endothelial and smooth muscle cells only when they were stimulated with VEGF.
(§2) The data represent the mean±SD of nine to twelve experiments. *: p<0.05 versus control (vehicle). None of the antibodies affected baseline endothelial proliferation in the absence of VEGF (not shown). Ab: polyclonal antiserum; MoAb: monoclonal antibodies; bFGF: basic fibroblast growth factor.
(§3) Endothelial and smooth muscle cell culture: In order to obtain mouse capillary endothelial cells, anesthetized mice were injected s.c. with 500 μl of ice-cold matrigel containing bFGF (100 ng/ml) and heparin (100 μg/ml). After seven days, the matrigel pellet was dissected and enzymatically dispersed using 0.1% type II collagenase (Sigma, St. Louis, Mo.). Mouse endothelial cells were routinely cultured in T75 flasks coated with 0.1% gelatin in M131 medium supplemented with 5% MVGS (Gibco-BRL). Smooth muscle cells from mouse aorta were harvested and cultured as described (J. M. Herbert et al., 1997, FEBS Lett. 413, 401-404). […]

[2] = tested on: PLGF^−/− endothelial cells; test: Endothelial proliferation, PLGF-/- cells; type: cell-based, mouse
Text: as §1, §2, §3

[3] = tested on: PIGF^+/+ mice; test: Matrigel assay, PIGF+/+ mice; type: in vivo, mouse; conditions: subcutaneous matrigel with 100 ng/ml factor, seven days, n=15
Text: (§4) Since VEGF plays a role in the above-mentioned phenotypes of angiogenesis, arteriogenesis and permeability, we investigated whether PIGF determined the responsiveness to VEGF. Subcutaneous implantation of matrigel (A. Passaniti et al., 1992, Lab. Invest. 67, 519-528) supplemented with VEGF165 (VEGF165) induced a strong angiogenic response in PIGF^+/+ but not in PIGF^−/− mice (hemoglobin content: 0.28±0.02 g/dl in PIGF^+/+ mice versus 0.02±0.02 g/dl in PIGF^−/− mice; n=15; p<0.05).
(§5) In contrast, basic fibroblast growth factor (bFGF) induced a similar angiogenic response in both genotypes (hemoglobin content: 0.28±0.02 g/dl in PIGF^+/+ mice versus 0.25±0.02 g/dl in PIGF^−/− mice; n=15; p=NS). These observations were confirmed by histological analysis and immunostaining for endothelial factor VIII-related antigen.
(§6) Matrigel assay: Ingrowth of capillaries in matrigel was performed as described (A. Passaniti et al., 1992, Lab. Invest. 67, 519-528). […] After seven days, the matrigel pellet with the neovessels was dissected for analysis of neovascularization: one part was homogenized to determine the hemoglobin content determined using Drabkin's reagent (Sigma, St. Quentin Fallavier, France), whereas the other part was fixed in 1% paraformaldehyde for histological analysis.

[4] = tested on: PIGF^−/− mice; test: Matrigel assay, PIGF-/- mice; type: in vivo, mouse; conditions: subcutaneous matrigel with 100 ng/ml factor, seven days, n=15
Text: as §4, §5, §6

[5] = tested on: PIGF^+/+ and PIGF^−/− smooth muscle cells; test: Smooth muscle cell proliferation; type: cell-based, mouse
Text: as §1
(§7) Endothelial and smooth muscle cell culture: In order to obtain mouse capillary endothelial cells, anesthetized mice were injected s.c. with 500 μl of ice-cold matrigel containing bFGF (100 ng/ml) and heparin (100 μg/ml). After seven days, the matrigel pellet was dissected and enzymatically dispersed using 0.1% type II collagenase (Sigma, St. Louis, Mo.). Mouse endothelial cells were routinely cultured in T75 flasks coated with 0.1% gelatin in M131 medium supplemented with 5% MVGS (Gibco-BRL). Smooth muscle cells from mouse aorta were harvested and cultured as described (J. M. Herbert et al., 1997, FEBS Lett. 413, 401-404). Before stimulation, cells were starved in medium with 0.5% serum for 24 hours, after which they were stimulated with human VEGF165 and/or murine PIGF, or bFGF (all from R&D, Abingdon, UK) for 24 hours before analysis of the total cell number (proliferation) or the number of cells migrated after scrape-wounding (migration).

[6] = tested on: PIGF^+/+ and PIGF^−/− endothelial cells; test: Endothelial cell migration (chemotaxis); type: cell-based, mouse; conditions: for chemotaxis of endothelial cells: 100 ng/ml (VEGF165, PIGF), both genotypes
Experimental: (§8) The reduced response of PIGF^−/− endothelial cells to VEGF was confirmed using cultured primary PIGF^−/− endothelial cells. […] Thus, PIGF determines and synergistically amplifies the response to VEGF.
as §7

[7] = tested on: PIGF^+/+ and PIGF^−/− smooth muscle cells; test: Smooth muscle cell migration; type: cell-based, mouse
Experimental: as §8, §7

[8] = tested on: PIGF^−/− fibroblasts; test: VEGF production by PIGF-/- fibroblasts; type: cell-based; conditions: 100 ng/ml for 48 hours
Experimental: (§9) Expression of VEGF by PIGF^−/− fibroblasts was increased by PIGF (VEGF production per 10^6 cells/ml/24 hours: 180±10 pg after treatment with vehicle versus 440±10 pg after treatment with 100 ng/ml PIGF for 48 hours; p<0.05 versus vehicle). Similar results were obtained for PIGF^+/+ fibroblasts (VEGF production per 10^6 cells/ml/24 hours: 200±8 pg after treatment with vehicle versus 430±5 pg after treatment with 100 ng/ml PIGF for 48 hours; p<0.05 versus vehicle).

[9] = tested on: PIGF^+/+ fibroblasts; test: VEGF production by PIGF+/+ fibroblasts; type: cell-based; conditions: 100 ng/ml for 48 hours
Experimental: as §9

[10] = tested on: PIGF^+/+ and PIGF^−/− endothelial cells; test: Endothelial cell survival (apoptosis by serum deprivation or TNF-α); type: cell-based, mouse
Text: as §1, §7

[11] = PIGF added to VEGF165, PIGF^−/− endothelial cells

Molecule | Endothelial proliferation ([1]; 50 ng/ml) | Endothelial proliferation ([2]; 50 ng/ml) | hemoglobin content (angiogenic response in matrigel) [3] | hemoglobin content (angiogenic response in matrigel) [4] | smooth muscle cell proliferation [5] | chemotaxis of endothelial cells [6] | migration of smooth muscle cells [7] | Endothelial proliferation ([1]; 100 ng/ml of each factor) | Endothelial proliferation ([2]; 100 ng/ml of each factor) | VEGF production per 10^6 cells/ml/24 hours [8] | VEGF production per 10^6 cells/ml/24 hours [9] | proliferation and survival response to VEGF165 [10, 11] | mitogenic and anti-apoptotic activity ([10]; factor alone, endothelial cells of either genotype) | migration of endothelial cells in response to VEGF165 [6, 11]
bFGF: basic fibroblast growth factor | 35 ± 2* | 35 ± 5* | 0.28 ± 0.02 g/dL | 0.25 ± 0.02 g/dL | comparable responses | both genotypes responded comparably | stimulated smooth muscle cells of both genotypes | – | – | – | – | – | – | –
B1 | – | – | – | – | ineffective by itself, restored the responsiveness of PIGF^−/− cells to VEGF | not chemotactic for endothelial cells of either genotype | rescued the impaired smooth muscle cell response to VEGF | 11 ± 1 | 11 ± 1 | 440±10 pg | 430±5 pg | rescued the impaired proliferation and survival response | not mitogenic nor anti-apoptotic | completely restored the impaired migration
